This experiment concerns the target T1, His-tagged human TSLP antigen (huTSLP-his) (human).
T1 construct: Secreted from HEK293E and purified on nickel; whole entry named; also called Human TSLP-his
Put plainly: ELISA, coated huTSLP-his.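 Further: binding of antibodies to plate-bound TSLP read as absorbance at 450 nm after TMB colour development, EC50 derived from binding curves.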

Experimental: The plate was incubated at 4° C. overnight. After the liquid was discarded, 5% skim milk (skim milk powder from Brightdairy) blocking solution diluted with PBS was added at 200 μL/well, and the plate was incubated in an incubator at 37° C. for 2 h for blocking. After the blocking, the blocking solution was discarded, and the plate was washed 3 times with a PBST buffer (PBS containing 0.1% (v/v) tween-20, pH 7.4). […] After the incubation, the plate was washed 3 times with PBST. […] After the plate was washed 6 times with PBST, a TMB chromogenic substrate (KPL, 52-00-03) was added at 50 μL/well, and the plate was incubated at room temperature for 10-15 min. Then, 1 M H₂SO₄ was added at 50 μL/well to stop the reaction. The absorbance at 450 nm was read with a NOVOStar microplate reader, and the EC₅₀ values for the binding of the TSLP antibodies to TSLP were calculated.

B1: hu119-20 (antibody, human IgG1, kappa)
heavy: EAQLVQSGAEVKKPGSSVKVSCKASGFTFSTYNMHWVRQAPGQGLEWIGAIYPGNGETSYNQKFKDRATLTVDKSTSTAYMELSSLRSEDTAVYYCAREDDYGEGYFDVWGQGTTVTVSSASTKGPSVFPLAPSSKSTSGGTAALGCLVKDYFPEPVTVSWNSGALTSGVHTFPAVLQSSGLYSLSSVVTVPSSSLGTQTYICNVNHKPSNTKVDKKVEPKSCDKTHTCPPCPAPELLGGPSVFLFPPKPKDTLYITREPEVTCVVVDVSHEDPEVKFNWYVDGVEVHNAKTKPREEQYNSTYRVVSVLTVLHQDWLNGKEYKCKVSNKALPAPIEKTISKAKGQPREPQVYTLPPSRDELTKNQVSLTCLVKGFYPSDIAVEWESNGQPENNYKTTPPVLDSDGSFFLYSKLTVDKSRWQQGNVFSCSVMHEALHNHYTQKSLSLSPGK
light: EIVLTQSPATLSLSPGERATLSCRASESVDNSGLSFMHWYQQKPGQPPRLLLYRASNLGSGIPARFSGSGSGTDFTLTISSLEPEDFAVYYCQQINTDPLTFGQGTKLEIKRTVAAPSVFIFPPSDEQLKSGTASVVCLLNNFYPREAKVQWKVDNALQSGNSQESVTEQDSKDSTYSLSSTLTLSKADYEKHKVYACEVTHQGLSSPVTKSFNRGEC
notes: IgG1-YTE, kappa
In the case of B1, the EC50 was 0.341 nM.

B2: hu119-15 (antibody, human IgG1, kappa, V domains shown)
VH: EAQLVQSGAEVKKPGSSVKVSCKASGFTFSTYNMHWVRQAPGQGLEWIGAIYPGNGETSYNQKFKDRATLTVDKSTSTAYMELSSLRSEDTAVYYCAREDDYGEGYFDVWGQGTTVTVSS
VL: EIVLTQSPATLSLSPGERATLSCRASESVDNSGLSFMHWYQQKPGQAPRLLIYRASNLGSGIPARFSGSGSGTDFTLTISSLEPEDFAVYYCQQINTDPLTFGQGTKLEIKR
notes: IgG1-YTE, kappa
With B2, a half-maximal response (EC50) required 0.35 nM.

B3: hu119-22 (antibody, human IgG1, kappa)
heavy: EAQLVQSGAEVKKPGSSVKVSCKASGFTFSTYNMHWVRQAPGQGLEWIGAIYPGNGETSYNQKFKDRATLTVDKSTRTAYMELSSLRSEDTAVYYCAREDDYGEGYFDVWGQGTTVTVSSASTKGPSVFPLAPSSKSTSGGTAALGCLVKDYFPEPVTVSWNSGALTSGVHTFPAVLQSSGLYSLSSVVTVPSSSLGTQTYICNVNHKPSNTKVDKKVEPKSCDKTHTCPPCPAPELLGGPSVFLFPPKPKDTLYITREPEVTCVVVDVSHEDPEVKFNWYVDGVEVHNAKTKPREEQYNSTYRVVSVLTVLHQDWLNGKEYKCKVSNKALPAPIEKTISKAKGQPREPQVYTLPPSRDELTKNQVSLTCLVKGFYPSDIAVEWESNGQPENNYKTTPPVLDSDGSFFLYSKLTVDKSRWQQGNVFSCSVMHEALHNHYTQKSLSLSPGK
light: EIVLTQSPATLSLSPGERATLSCRASESVDNSGLSFMHWYQQKPGQPPRLLLYRASNLGSGIPARFSGSGSGTDFTLTISSLEPEDFAVYYCQQINTDPLTFGQGTKLEIKRTVAAPSVFIFPPSDEQLKSGTASVVCLLNNFYPREAKVQWKVDNALQSGNSQESVTEQDSKDSTYSLSSTLTLSKADYEKHKVYACEVTHQGLSSPVTKSFNRGEC
notes: IgG1-YTE, kappa
Molecule B3 gave an EC50 of 0.351 nM.

B4: hu119-21 (antibody, human IgG1, kappa)
heavy: EVQLVQSGAEVKKPGSSVKVSCKASGGTFSTYNMHWVRQAPGQGLEWIGAIYPGNGETSYNQKFKDRATLTVDKSTRTAYMELSSLRSEDTAVYYCAREDDYGEGYFDVWGQGTTVTVSSASTKGPSVFPLAPSSKSTSGGTAALGCLVKDYFPEPVTVSWNSGALTSGVHTFPAVLQSSGLYSLSSVVTVPSSSLGTQTYICNVNHKPSNTKVDKKVEPKSCDKTHTCPPCPAPELLGGPSVFLFPPKPKDTLYITREPEVTCVVVDVSHEDPEVKFNWYVDGVEVHNAKTKPREEQYNSTYRVVSVLTVLHQDWLNGKEYKCKVSNKALPAPIEKTISKAKGQPREPQVYTLPPSRDELTKNQVSLTCLVKGFYPSDIAVEWESNGQPENNYKTTPPVLDSDGSFFLYSKLTVDKSRWQQGNVFSCSVMHEALHNHYTQKSLSLSPGK
light: EIVLTQSPATLSLSPGERATLSCRASESVDNSGLSFMHWYQQKPGQPPRLLLYRASNLGSGIPARFSGSGSGTDFTLTISSLEPEDFAVYYCQQINTDPLTFGQGTKLEIKRTVAAPSVFIFPPSDEQLKSGTASVVCLLNNFYPREAKVQWKVDNALQSGNSQESVTEQDSKDSTYSLSSTLTLSKADYEKHKVYACEVTHQGLSSPVTKSFNRGEC
notes: IgG1-YTE, kappa
With B4, a half-maximal response (EC50) required 0.399 nM.

B5: hu119-17 (antibody, human IgG1, kappa, V domains shown)
VH: EAQLVQSGAEVKKPGSSVKVSCKASGFTFSTYNMHWVRQAPGQGLEWIGAIYPGNGETSYNQKFKDRATLTVDKSTRTAYMELSSLRSEDTAVYYCAREDDYGEGYFDVWGQGTTVTVSS
VL: EIVLTQSPATLSLSPGERATLSCRASESVDNSGLSFMHWYQQKPGQAPRLLIYRASNLGSGIPARFSGSGSGTDFTLTISSLEPEDFAVYYCQQINTDPLTFGQGTKLEIKR
notes: IgG1-YTE, kappa
In the case of B5, the concentration for a half-maximal effect (EC50) worked out at 0.351 nM. This EC50 and that of the molecule before are within 1.5-fold of each other.

B6: hu119-24 (antibody, human IgG1, kappa)
heavy: EVQLVQSGAEVKKPGSSVKVSCKASGGTFSTYNMHWVRQAPGQGLEWIGAIYPGNGETSYNQKFKDRATLTVDKSTSTAYMELSSLRSEDTAVYYCAREDDYGEGYFDVWGQGTTVTVSSASTKGPSVFPLAPSSKSTSGGTAALGCLVKDYFPEPVTVSWNSGALTSGVHTFPAVLQSSGLYSLSSVVTVPSSSLGTQTYICNVNHKPSNTKVDKKVEPKSCDKTHTCPPCPAPELLGGPSVFLFPPKPKDTLYITREPEVTCVVVDVSHEDPEVKFNWYVDGVEVHNAKTKPREEQYNSTYRVVSVLTVLHQDWLNGKEYKCKVSNKALPAPIEKTISKAKGQPREPQVYTLPPSRDELTKNQVSLTCLVKGFYPSDIAVEWESNGQPENNYKTTPPVLDSDGSFFLYSKLTVDKSRWQQGNVFSCSVMHEALHNHYTQKSLSLSPGK
light: DIVLTQSPATLSLSPGERATLSCRASESVDNSGLSFMHWYQQKPGQPPRLLLYRASNLGSGIPARFSGSGSGTDFTLTISSLEPEDFAVYYCQQINTDPLTFGQGTKLEIKRTVAAPSVFIFPPSDEQLKSGTASVVCLLNNFYPREAKVQWKVDNALQSGNSQESVTEQDSKDSTYSLSSTLTLSKADYEKHKVYACEVTHQGLSSPVTKSFNRGEC
notes: IgG1-YTE, kappa
Molecule B6 came in with an EC50 of 0.345 nM.

B7: hu119-19 (antibody, human IgG1, kappa)
heavy: EVQLVQSGAEVKKPGSSVKVSCKASGGTFSTYNMHWVRQAPGQGLEWIGAIYPGNGETSYNQKFKDRATLTVDKSTSTAYMELSSLRSEDTAVYYCAREDDYGEGYFDVWGQGTTVTVSSASTKGPSVFPLAPSSKSTSGGTAALGCLVKDYFPEPVTVSWNSGALTSGVHTFPAVLQSSGLYSLSSVVTVPSSSLGTQTYICNVNHKPSNTKVDKKVEPKSCDKTHTCPPCPAPELLGGPSVFLFPPKPKDTLYITREPEVTCVVVDVSHEDPEVKFNWYVDGVEVHNAKTKPREEQYNSTYRVVSVLTVLHQDWLNGKEYKCKVSNKALPAPIEKTISKAKGQPREPQVYTLPPSRDELTKNQVSLTCLVKGFYPSDIAVEWESNGQPENNYKTTPPVLDSDGSFFLYSKLTVDKSRWQQGNVFSCSVMHEALHNHYTQKSLSLSPGK
light: EIVLTQSPATLSLSPGERATLSCRASESVDNSGLSFMHWYQQKPGQPPRLLLYRASNLGSGIPARFSGSGSGTDFTLTISSLEPEDFAVYYCQQINTDPLTFGQGTKLEIKRTVAAPSVFIFPPSDEQLKSGTASVVCLLNNFYPREAKVQWKVDNALQSGNSQESVTEQDSKDSTYSLSSTLTLSKADYEKHKVYACEVTHQGLSSPVTKSFNRGEC
notes: IgG1-YTE, kappa
With B7, the EC50 turned out to be 0.353 nM. The EC50 values of the last two molecules are within 1.5-fold of each other.

B8: hu119-23 (antibody, human IgG1, kappa, V domains shown)
VH: EVQLVQSGAEVKKPGSSVKVSCKASGFTFSTYNMHWVKHAPGQGLEWIGAIYPGNGETSYNQKFKDRATLTVDKSTSTAYMELSSLRSEDTAVYYCAREDDYGEGYFDVWGQGTTVTVSS
VL: DIVLTQSPATLSLSPGERATLSCRASESVDNSGLSFMHWYQQKPGQPPRLLLYRASNLGSGIPARFSGSGSGTDFTLTISSLEPEDFAVYYCQQINTDPLTFGQGTKLEIKR
notes: IgG1-YTE, kappa
The molecule B8 had an EC50 of 0.34 nM.

B9: hu119-14 (antibody, human IgG1, kappa, V domains shown)
VH: EVQLVQSGAEVKKPGSSVKVSCKASGGTFSTYNMHWVRQAPGQGLEWIGAIYPGNGETSYNQKFKDRATLTVDKSTSTAYMELSSLRSEDTAVYYCAREDDYGEGYFDVWGQGTTVTVSS
VL: EIVLTQSPATLSLSPGERATLSCRASESVDNSGLSFMHWYQQKPGQAPRLLIYRASNLGSGIPARFSGSGSGTDFTLTISSLEPEDFAVYYCQQINTDPLTFGQGTKLEIKR
notes: IgG1-YTE, kappa
B9 had an EC50 of 0.345 nM.

B10: hu119-16 (antibody, human IgG1, kappa, V domains shown)
VH: EVQLVQSGAEVKKPGSSVKVSCKASGGTFSTYNMHWVRQAPGQGLEWIGAIYPGNGETSYNQKFKDRATLTVDKSTRTAYMELSSLRSEDTAVYYCAREDDYGEGYFDVWGQGTTVTVSS
VL: EIVLTQSPATLSLSPGERATLSCRASESVDNSGLSFMHWYQQKPGQAPRLLIYRASNLGSGIPARFSGSGSGTDFTLTISSLEPEDFAVYYCQQINTDPLTFGQGTKLEIKR
notes: IgG1-YTE, kappa
In turn, B10 gave an EC50 of 0.366 nM.

B11: hu179-17 (antibody, human IgG1, kappa)
heavy: EVQLVQSGAEVKKPGSSVKVSCKASGYAFSNYLIEWVRQAPGQGLEWIGVIDPGNGDTNYNENFKGRATLTADKSTSTAYMELSSLRSEDTAVYYCAREDNTGTAFDYWGQGTTVTVSSASTKGPSVFPLAPSSKSTSGGTAALGCLVKDYFPEPVTVSWNSGALTSGVHTFPAVLQSSGLYSLSSVVTVPSSSLGTQTYICNVNHKPSNTKVDKKVEPKSCDKTHTCPPCPAPELLGGPSVFLFPPKPKDTLYITREPEVTCVVVDVSHEDPEVKFNWYVDGVEVHNAKTKPREEQYNSTYRVVSVLTVLHQDWLNGKEYKCKVSNKALPAPIEKTISKAKGQPREPQVYTLPPSRDELTKNQVSLTCLVKGFYPSDIAVEWESNGQPENNYKTTPPVLDSDGSFFLYSKLTVDKSRWQQGNVFSCSVMHEALHNHYTQKSLSLSPGK
light: SIVMTQTPLSLSVTPGQPASISCKASQSVSSDVTWYLQKPGQSPQLLIYYVSNHYTGVPDRFSGSGSGTDFTLKISRVEAEDVGVYYCQQHHRFPLTFGQGTKLEIKRTVAAPSVFIFPPSDEQLKSGTASVVCLLNNFYPREAKVQWKVDNALQSGNSQESVTEQDSKDSTYSLSSTLTLSKADYEKHKVYACEVTHQGLSSPVTKSFNRGEC
notes: IgG1-YTE, kappa
Consider B11, for which it took 0.218 nM to reach a half-maximal effect (EC50).

B12: hu179-19 (antibody, human IgG1, kappa, V domains shown)
VH: EVQLVQSGAEVKKPGSSVKVSCKASGYAFSNYLIEWVRQAPGQGLEWIGVIDPGNGDTNYNENFKGRATLTADKSTSTAYMELSSLRSEDTAVYYCAREDNTGTAFDYWGQGTTVTVSS
VL: SIVMTQTPLSLSVTPGQPASISCKASQSVSSDVTWYLQKPGQSPQLLIYYVSNHYTGVPDRFSGSGYGTDFTLKISRVEAEDVGVYYCQQHHRFPLTFGQGTKLEIKR
notes: IgG1-YTE, kappa
For B12, the EC50 was 0.162 nM. This EC50 and that of the molecule before are within 1.5-fold of each other.

B13: hu179-18 (antibody, human IgG1, kappa, V domains shown)
VH: EVQLVQSGAEVKKPGSSVKVSCKASGYAFSNYLIEWVRQAPGQGLEWIGVIDPGNGDTNYNENFKGRATLTADKSTSTAYMELSSLRSEDTAVYYCAREDNTGTAFDYWGQGTTVTVSS
VL: SIVMTQTPLSLSVTPGQPASISCKASQSVSSDVTWYLQKPGQSPQLLIYYVSNHYTGVPDRFSGSGSGTDFTFKISRVEAEDVGVYYCQQHHRFPLTFGQGTKLEIKR
notes: IgG1-YTE, kappa
With B13, the EC50 stood at 0.246 nM. Compared with the last molecule, the EC50 is about 1.5-fold higher.

Values taken from patent US20240016931A1 (JIANGSU HENGRUI PHARMACEUTICALS, published 2024).
